In test [1] the target is T1, CD27 overexpressed on HEK293F cells (UniProt P26842 20-260, limits assumed).
T1 construct: whole, on cells
T1 sequence (looked up): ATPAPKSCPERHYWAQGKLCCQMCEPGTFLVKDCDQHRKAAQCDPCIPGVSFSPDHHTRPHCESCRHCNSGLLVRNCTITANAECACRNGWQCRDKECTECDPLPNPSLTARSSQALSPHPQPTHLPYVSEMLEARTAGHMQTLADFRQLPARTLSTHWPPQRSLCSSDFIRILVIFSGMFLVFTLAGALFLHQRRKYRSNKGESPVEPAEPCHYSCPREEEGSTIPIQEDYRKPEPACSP
Put plainly: flow cytometry, HEK293F cells expressing the receptor [Cont.]. (In flow cytometry, cells or beads pass a laser one at a time.)

Test [2] addresses T2, GITR overexpressed on HEK293F cells (UniProt Q9Y5U5 26-241, limits assumed).
T2 construct: whole, on cells
T2 sequence (looked up): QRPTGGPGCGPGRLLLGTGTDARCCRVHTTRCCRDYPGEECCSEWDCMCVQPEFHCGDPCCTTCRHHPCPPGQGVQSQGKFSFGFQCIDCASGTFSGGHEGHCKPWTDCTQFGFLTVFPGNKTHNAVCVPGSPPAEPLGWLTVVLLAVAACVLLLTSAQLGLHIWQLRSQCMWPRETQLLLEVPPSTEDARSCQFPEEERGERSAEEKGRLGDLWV
Described as above.

Test [3] has as its target T3, CD40 overexpressed on HEK293F cells (UniProt P25942 21-277, limits assumed).
T3 construct: whole, on cells
The test is described as above.

The target of test [4] is T4, OX40 overexpressed on HEK293F cells (UniProt P43489 29-277, limits assumed).
T4 construct: whole, on cells
T4 sequence (looked up): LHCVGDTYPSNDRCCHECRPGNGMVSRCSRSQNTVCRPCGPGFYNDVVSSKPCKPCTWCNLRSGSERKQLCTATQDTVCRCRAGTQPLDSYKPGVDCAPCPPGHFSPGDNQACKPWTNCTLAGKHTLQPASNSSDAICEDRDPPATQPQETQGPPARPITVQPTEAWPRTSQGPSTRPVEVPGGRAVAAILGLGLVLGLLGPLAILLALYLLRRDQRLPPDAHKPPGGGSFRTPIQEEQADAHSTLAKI
The test is described as above.

Test [5] has as its target T5, mouse CD137 fused with human FC fragment (mouse, UniProt P20334 24-178, limits assumed).
T5 construct: also called mouse CD137-Fc; not shown: human Fc fragment
T5 sequence: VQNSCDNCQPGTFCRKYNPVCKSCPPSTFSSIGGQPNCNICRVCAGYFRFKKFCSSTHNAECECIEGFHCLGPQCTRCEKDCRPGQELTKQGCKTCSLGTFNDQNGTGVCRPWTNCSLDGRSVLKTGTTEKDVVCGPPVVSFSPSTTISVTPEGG
Put plainly: ELISA, CD137-Fc coated in serial dilution, IgG 5 µg/mL, protein L-HRP. On the technique in general: In an ELISA, binding on a coated surface is turned into a signal by an enzyme label.

Test [6] deals with T6, human CD137-His6 (Sino Biological #10041-H08H) (human, UniProt Q07011 24-186).
T6 construct: Bought; also called human CD137 protein; not shown: His6 tag
The test is described as follows: SPR Biacore, IgG captured; Table 3 run, IgG captured by anti-human Fc; Table 1b gives 3.8E-08 M from a separate measurement. Background: In SPR one partner is held on a chip, and binding of the other changes the refractive index at the surface.

The target of test [7] is T7, CD120a.
T7 chain: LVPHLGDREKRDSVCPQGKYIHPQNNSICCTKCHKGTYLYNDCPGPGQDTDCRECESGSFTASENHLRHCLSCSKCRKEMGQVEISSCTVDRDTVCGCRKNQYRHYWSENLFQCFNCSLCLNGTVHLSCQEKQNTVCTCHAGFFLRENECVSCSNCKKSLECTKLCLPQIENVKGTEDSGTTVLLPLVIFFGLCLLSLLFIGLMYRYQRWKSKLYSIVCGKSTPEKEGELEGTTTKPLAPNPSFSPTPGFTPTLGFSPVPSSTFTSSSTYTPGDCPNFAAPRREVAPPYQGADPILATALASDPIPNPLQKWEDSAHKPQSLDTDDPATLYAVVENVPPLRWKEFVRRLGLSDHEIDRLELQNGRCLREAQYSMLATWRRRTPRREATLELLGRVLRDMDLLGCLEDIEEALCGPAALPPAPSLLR
The test is described as follows: flow cytometry, HEK293F cells expressing the receptor, antibody 100 nM [Cont.].

For test [8], the target named is T8, CD95.
T8 chain: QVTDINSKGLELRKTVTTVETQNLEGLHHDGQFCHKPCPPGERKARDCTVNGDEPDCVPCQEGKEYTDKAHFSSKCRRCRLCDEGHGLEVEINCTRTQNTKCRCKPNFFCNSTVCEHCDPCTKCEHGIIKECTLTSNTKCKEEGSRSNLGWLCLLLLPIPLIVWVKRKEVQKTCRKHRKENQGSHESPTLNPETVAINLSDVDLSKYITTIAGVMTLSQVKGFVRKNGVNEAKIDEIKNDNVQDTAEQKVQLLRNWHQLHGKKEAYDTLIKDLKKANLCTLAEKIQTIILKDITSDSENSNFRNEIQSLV
Described as above.

The next test deals with T9, Hu_R66A (human, UniProt Q07011 18-255).
T9 construct: On HEK293F; also called human CD137 R66A
Put plainly: flow cytometry, HEK293F.

The target in test [9] is T6, human CD137-His6 (Sino Biological …). The test is described as follows: SPR Biacore, IgG captured.
Test [10] deals with T10, mouse CD137 protein (Biacore) (mouse, UniProt P20334 24-178, limits assumed).
T10 construct: Construct used as SPR analyte not described
T10 sequence: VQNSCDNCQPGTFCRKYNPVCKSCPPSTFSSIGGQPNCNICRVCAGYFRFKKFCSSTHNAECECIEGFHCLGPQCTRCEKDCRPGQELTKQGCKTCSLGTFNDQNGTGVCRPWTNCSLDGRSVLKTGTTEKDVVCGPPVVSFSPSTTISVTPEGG
Put plainly: SPR Biacore, IgG captured.

For test [11], the target named is T11, full-length mouse CD137 on the cell surface (mouse, UniProt P20334 24-178).
T11 sequence: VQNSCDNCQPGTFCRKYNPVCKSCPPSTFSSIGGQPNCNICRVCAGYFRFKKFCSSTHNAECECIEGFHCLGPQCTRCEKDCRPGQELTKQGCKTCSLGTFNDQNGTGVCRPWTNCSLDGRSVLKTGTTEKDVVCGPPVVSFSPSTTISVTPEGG
The test is described as follows: flow cytometry, HEK293F.

The target of test [12] is T1, CD27 overexpressed on HEK293F cells. The test is described as follows: flow cytometry, HEK293F cells expressing the receptor, antibody 100 nM.
Test [13] addresses T7, CD120a. The test is described as follows: flow cytometry, HEK293F cells expressing the receptor [Cont.].
In test [14] the target is T8, CD95. Described as above.

T3 sequence (P25942 21-277 limits assumed): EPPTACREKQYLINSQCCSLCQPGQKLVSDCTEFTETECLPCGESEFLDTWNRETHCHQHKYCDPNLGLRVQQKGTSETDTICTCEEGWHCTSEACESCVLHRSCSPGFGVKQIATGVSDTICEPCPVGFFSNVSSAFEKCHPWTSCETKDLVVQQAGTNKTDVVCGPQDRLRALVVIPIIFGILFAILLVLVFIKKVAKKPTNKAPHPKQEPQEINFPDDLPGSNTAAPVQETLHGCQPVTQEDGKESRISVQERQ

B1: AG10059 (antibody, human IgG4 S228P, kappa, V domains shown)
VH: EVQLVESGGGLVQPGGSLRLSCAASGYSITSGHYWAWIRQAPGKGLEWVSSISGYGSTTYYADSVKGRFTISRDNSKNTLYLQLNSLRAEDTAVYYCARGGSDAVLGDWFAYWGQGTLVTVSS
VL: DIQLTQSPSSLSASVGDRVTITCRASQGIGSFLAWYQQKPGKAPKLLIYDASNLETGVPSRFSGSGSGTDFTLTISSLQPEDFATYYCQQGYYLWTFGQGTKVEIKR
Consider B1, for which the binding result is listed as “no binding (tested: 100 nM (text paragraph 226))” in [1]; “no binding (tested: 100 nM (text paragraph 226))” in test [2]; “no binding (tested: 100 nM (text paragraph 226))” in [3]; “no binding (tested: 100 nM (text paragraph 226))” in [4]; “no binding” in [5]. The Kd (usually the free concentration of one partner at which half of the binding sites on the other are occupied at equilibrium, for simple one-to-one binding) in test [6] came out at 24.2 nM.

B2: AG10058 (antibody, human IgG4 S228P, kappa, V domains shown)
VH: EVQLVESGGGLVQPGGSLRLSCAASGFSLSTSGVGVGWIRQAPGKGLEWLALIDWDDDKYYSPSLKSRLTISRDNSKNTLYLQLNSLRAEDTAVYYCARGGSDTVLGDWFAYWGQGTLVTVSS
VL: DIQLTQSPSSLSASVGDRVTITCRASQSVSPYLAWYQQKPGKAPKLLIYDASSLESGVPSRFSGSGSGTDFTLTISSLQPEDFATYYCQQGYSLWTFGQGTKVEIKR
Consider B2, for which the Mean amounted to 8070 with CD120a [7], 5370 with CD95 [8] and 6660 in test [12]. Further, the binding result is “no binding” with Hu_R66A, “no binding (tested: 100 nM (text paragraph 226))” with CD120a [13] and “no binding (tested: 100 nM (text paragraph 226))” in the test with CD95 [14]. For the same molecule, the values for the Kd in test [9], in test [10] and in test [11] were 5.9 nM, 15.2 nM and 10.1 nM, respectively.
